Laboratory results published in patent publication US7083932 (EUROSCREEN S A, dated 2006).

Biological target: orphan receptor ORL1 (Opioid Receptor-Like 1) stably expressed in recombinant CHO(ORL1+) cells
Experiment: cell-based or functional assay

Binder | inhibition of forskolin-induced accumulation of cAMP in CHO cells expressing the receptor, IC50 [nM] | inhibition of forskolin-induced accumulation of cAMP in recombinant CHO(ORL1+) cells, IC50 [nM]
YGGFTGARKSARKLANQ [1Tyr analogue of the synthetic heptadecapeptide] | 1 | –
FGGFTGARKSARKLANQ | – | 0.9
